These results are taken from patent US20210196794A1 (SUNSHINE LAKE PHARMA, published 2021).

The EC50 (read off the curve) is the concentration needed to bring the measured effect to its halfway point. A higher EC50 (read off the curve) goes with a need for much substance. What is called Kd is the equilibrium constant for the complex coming apart. Lower therefore signals higher affinity.

Experiment [1] addresses βKlotho protein (AVIVA SYSTEMS BIOLOGY). Briefly: ELISA on coated βKlotho, detection with anti-human IgG4 Fc-HRP, OD450.
The target is the same in experiment [2]. Briefly: BLI (Octet RED 96), biotinylated βKlotho on streptavidin probe, fusion protein at 40 nM.
The target is the same in experiment [3]. The experiment can be described thus: BLI (Octet RED 96), biotinylated βKlotho on streptavidin probe. (In general: BLI is a label-free optical method that tracks binding on a fibre tip over time.)

Sequence of βKlotho protein (AVIVA SYSTEMS BIOLOGY) (chain, as listed by the source): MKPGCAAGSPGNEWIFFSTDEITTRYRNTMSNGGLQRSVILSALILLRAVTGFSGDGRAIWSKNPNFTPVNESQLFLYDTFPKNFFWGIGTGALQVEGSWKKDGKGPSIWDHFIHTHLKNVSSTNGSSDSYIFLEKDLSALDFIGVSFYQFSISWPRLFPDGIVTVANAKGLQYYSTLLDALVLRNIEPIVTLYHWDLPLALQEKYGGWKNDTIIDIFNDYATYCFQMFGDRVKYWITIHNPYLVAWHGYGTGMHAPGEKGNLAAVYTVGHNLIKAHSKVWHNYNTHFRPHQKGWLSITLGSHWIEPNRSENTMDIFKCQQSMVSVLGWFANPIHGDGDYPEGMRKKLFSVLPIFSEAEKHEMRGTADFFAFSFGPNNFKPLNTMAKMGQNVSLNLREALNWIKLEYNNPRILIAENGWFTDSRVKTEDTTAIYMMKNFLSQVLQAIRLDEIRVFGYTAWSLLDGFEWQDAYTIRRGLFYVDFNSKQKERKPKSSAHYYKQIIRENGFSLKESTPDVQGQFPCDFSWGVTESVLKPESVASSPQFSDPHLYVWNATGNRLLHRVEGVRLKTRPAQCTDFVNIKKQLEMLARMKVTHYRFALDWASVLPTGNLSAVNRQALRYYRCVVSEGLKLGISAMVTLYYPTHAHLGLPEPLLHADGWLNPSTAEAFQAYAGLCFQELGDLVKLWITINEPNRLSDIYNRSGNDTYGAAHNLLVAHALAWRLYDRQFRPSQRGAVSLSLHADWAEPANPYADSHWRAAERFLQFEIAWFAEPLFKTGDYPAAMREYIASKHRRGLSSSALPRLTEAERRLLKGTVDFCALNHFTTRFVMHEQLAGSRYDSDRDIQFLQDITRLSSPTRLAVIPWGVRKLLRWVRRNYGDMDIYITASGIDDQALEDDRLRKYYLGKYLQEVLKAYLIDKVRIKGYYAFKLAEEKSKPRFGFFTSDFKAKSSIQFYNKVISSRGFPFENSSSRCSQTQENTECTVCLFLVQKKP

B1: fusion protein S5 (human IgG4 Fc - linker - FGF21 variant 98R, 167H, 171A, 175H) (Fc fusion)
chain: ESKYGPPCPPCPAPEAAGGPSVFLFPPKPKDTLMISRTPEVTCVVVDVSQEDPEVQFNWYVDGVEVHNAKTKPREEQFNSTYRVVSVLTVLHQDWLNGKEYKCKVSNKGLPSSIEKTISKAKGQPREPQVYTLPPSQEEMTKNQVSLTCLVKGFYPSDIAVEWESNGQPENNYKTTPPVLDSDGSFFLYSKLTVDKSRWQEGNVFSCSVMHEALHNHYTQKSLSLSLGGGGGSGGGGSGGGGSHPIPDSSPLLQFGGQVRQRYLYTDDAQQTEAHLEIREDGTVGGAADQSPESLLQLKALKPGVIQILGVKTSRFLCQRPDGALYGSLHFDPEACSFRERLLEDGYNVYQSEAHGLPLHLPGNKSPHRDPAPRGPARFLPLPGLPPALPEPPGILAPQPPDVGSSDPLHMVGASQGHSPSYAS
Regarding B1, the “EC50 (read off the curve)” value in experiment [1] is roughly 0.2 µg/mL.

B2: fusion protein S7 (human IgG4 Fc - linker - FGF21 variant 98R, 171A) (Fc fusion)
chain: ESKYGPPCPPCPAPEAAGGPSVFLFPPKPKDTLMISRTPEVTCVVVDVSQEDPEVQFNWYVDGVEVHNAKTKPREEQFNSTYRVVSVLTVLHQDWLNGKEYKCKVSNKGLPSSIEKTISKAKGQPREPQVYTLPPSQEEMTKNQVSLTCLVKGFYPSDIAVEWESNGQPENNYKTTPPVLDSDGSFFLYSKLTVDKSRWQEGNVFSCSVMHEALHNHYTQKSLSLSLGGGGGSGGGGSGGGGSHPIPDSSPLLQFGGQVRQRYLYTDDAQQTEAHLEIREDGTVGGAADQSPESLLQLKALKPGVIQILGVKTSRFLCQRPDGALYGSLHFDPEACSFRERLLEDGYNVYQSEAHGLPLHLPGNKSPHRDPAPRGPARFLPLPGLPPALPEPPGILAPQPPDVGSSDPLSMVGASQGRSPSYAS
Consider B2, for which, in experiment [2], the Kd worked out at 0.873 nM and the Response values was 0.143.

B3: fusion protein S1 (human IgG4 Fc - linker - FGF21 variant 98R, 167H, 171A) (Fc fusion)
chain: ESKYGPPCPPCPAPEAAGGPSVFLFPPKPKDTLMISRTPEVTCVVVDVSQEDPEVQFNWYVDGVEVHNAKTKPREEQFNSTYRVVSVLTVLHQDWLNGKEYKCKVSNKGLPSSIEKTISKAKGQPREPQVYTLPPSQEEMTKNQVSLTCLVKGFYPSDIAVEWESNGQPENNYKTTPPVLDSDGSFFLYSKLTVDKSRWQEGNVFSCSVMHEALHNHYTQKSLSLSLGGGGGSGGGGSGGGGSHPIPDSSPLLQFGGQVRQRYLYTDDAQQTEAHLEIREDGTVGGAADQSPESLLQLKALKPGVIQILGVKTSRFLCQRPDGALYGSLHFDPEACSFRERLLEDGYNVYQSEAHGLPLHLPGNKSPHRDPAPRGPARFLPLPGLPPALPEPPGILAPQPPDVGSSDPLHMVGASQGRSPSYAS
notes: Purified from HEK293F cells by Protein A
Regarding B3, in experiment [1], the “EC50 (read off the curve)” value was roughly 0.02 µg/mL. Besides, in experiment [2], binding was characterised by a dissociation constant (Kd) of 0.63 nM and the Response values was found to be 0.17.

B4: fusion protein S2 (human IgG4 Fc - linker - FGF21 variant 98R, 167H, 171A, 175L) (Fc fusion)
chain: ESKYGPPCPPCPAPEAAGGPSVFLFPPKPKDTLMISRTPEVTCVVVDVSQEDPEVQFNWYVDGVEVHNAKTKPREEQFNSTYRVVSVLTVLHQDWLNGKEYKCKVSNKGLPSSIEKTISKAKGQPREPQVYTLPPSQEEMTKNQVSLTCLVKGFYPSDIAVEWESNGQPENNYKTTPPVLDSDGSFFLYSKLTVDKSRWQEGNVFSCSVMHEALHNHYTQKSLSLSLGGGGGSGGGGSGGGGSHPIPDSSPLLQFGGQVRQRYLYTDDAQQTEAHLEIREDGTVGGAADQSPESLLQLKALKPGVIQILGVKTSRFLCQRPDGALYGSLHFDPEACSFRERLLEDGYNVYQSEAHGLPLHLPGNKSPHRDPAPRGPARFLPLPGLPPALPEPPGILAPQPPDVGSSDPLHMVGASQGLSPSYAS
Regarding B4, in experiment [3], the “binding ability relative to S7” value was 2 fold. In addition, in experiment [1], the “EC50 (read off the curve)” value was roughly 0.02 µg/mL. Besides, in experiment [2], the affinity, expressed as Kd, was 0.429 nM and the Response values worked out at 0.19.

B5: fusion protein S4 (human IgG4 Fc - linker - FGF21 variant 98R, 167H, 171A, 175P) (Fc fusion)
chain: ESKYGPPCPPCPAPEAAGGPSVFLFPPKPKDTLMISRTPEVTCVVVDVSQEDPEVQFNWYVDGVEVHNAKTKPREEQFNSTYRVVSVLTVLHQDWLNGKEYKCKVSNKGLPSSIEKTISKAKGQPREPQVYTLPPSQEEMTKNQVSLTCLVKGFYPSDIAVEWESNGQPENNYKTTPPVLDSDGSFFLYSKLTVDKSRWQEGNVFSCSVMHEALHNHYTQKSLSLSLGGGGGSGGGGSGGGGSHPIPDSSPLLQFGGQVRQRYLYTDDAQQTEAHLEIREDGTVGGAADQSPESLLQLKALKPGVIQILGVKTSRFLCQRPDGALYGSLHFDPEACSFRERLLEDGYNVYQSEAHGLPLHLPGNKSPHRDPAPRGPARFLPLPGLPPALPEPPGILAPQPPDVGSSDPLHMVGASQGPSPSYAS
As to B5, in experiment [1], the “EC50 (read off the curve)” value is roughly 0.08 µg/mL.
